This passage reports Kd results from paper PMC11428563.

This data set addresses VEGF as named in the paper; reagent listed as Human VEGFR2 / KDR Protein, His Tag, Acrobiosystems KDR-H5227 (human) (UniProt P35968). The data set is described as follows: BLI. The conditions noted are these: BLI (Octet R4, anti-penta-His HIS1K sensors): protein loaded in phosphate buffer pH 7.4 (PlGF 2.5 ug/mL, VEGF 10 ug/mL), aptamers 0-20 uM in 1X Sartorius …. On the technique in general: Biolayer interferometry detects binding as a change in optical thickness at a sensor tip.

Sequence of VEGF as named in the paper; reagent listed as Human VEGFR2 / KDR Protein, His Tag, Acrobiosystems KDR-H5227 (human) (P35968 20-764): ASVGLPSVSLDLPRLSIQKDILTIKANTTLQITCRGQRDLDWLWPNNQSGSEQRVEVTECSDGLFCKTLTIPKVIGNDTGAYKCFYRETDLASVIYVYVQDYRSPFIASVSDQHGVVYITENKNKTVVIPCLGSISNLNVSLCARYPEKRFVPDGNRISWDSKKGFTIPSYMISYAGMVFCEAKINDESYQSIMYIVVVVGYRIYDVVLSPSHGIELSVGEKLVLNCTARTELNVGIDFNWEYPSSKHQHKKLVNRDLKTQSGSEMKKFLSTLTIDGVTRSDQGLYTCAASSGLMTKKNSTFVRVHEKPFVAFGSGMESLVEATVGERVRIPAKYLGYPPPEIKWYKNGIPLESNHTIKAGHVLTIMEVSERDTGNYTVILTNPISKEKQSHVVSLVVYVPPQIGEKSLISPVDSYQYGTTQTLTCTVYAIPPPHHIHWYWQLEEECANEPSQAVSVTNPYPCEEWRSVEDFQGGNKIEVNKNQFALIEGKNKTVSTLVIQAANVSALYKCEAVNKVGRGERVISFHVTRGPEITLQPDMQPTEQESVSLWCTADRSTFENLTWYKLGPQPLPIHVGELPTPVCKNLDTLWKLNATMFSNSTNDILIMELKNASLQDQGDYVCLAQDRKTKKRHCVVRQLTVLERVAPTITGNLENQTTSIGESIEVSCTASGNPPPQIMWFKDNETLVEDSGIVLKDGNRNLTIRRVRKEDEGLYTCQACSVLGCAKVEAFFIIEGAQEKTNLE

What is called Kd is a measure of binding affinity in units of concentration. Sequence CGAAAACAC [VEGF-Apt2] showed a Kd of 0.467 nM.

As for CGAAGGGAA [VEGF-Apt1], the Kd is 320000 nM.

For the setting “kon 9.164e1 1/Ms, koff 4.362e-7 1/s”, GAAAGGCGA [VEGF-Apt3] returned a Kd of 6.8 nM.
